Data reported in IntAct's records for PubMed 30126976.

B1: Solute carrier family 15 member 5 (Homo sapiens), A6NIM6 (parent)
chain: MSVTGFTITDEKVHLYHSIEKEKTVRHIGDLCSSHSVKKIQVGICLLLVELCERFTFFEVVCNMIPFCTIKLGYHNCQAAILNLCFIGTSILTPVFVRWLTDVYLGRNKLVYICLFLHFLGTALLSVVAFPLEDFYLGTYHAVNNIPKTEQHRLFYVALLTICLGIGGVRAIVCPLGAFGLQEYGSQKTMSFFNWFYWLMNLNATIVFLGISYIQHSQAWALVLLIPFMSMLMAVITLHMIYYNLIYQSEKRCSLLTGVGVLVSALKTCHPQYCHLGRDVTSQLDHAKEKNGGCYSELHVEDTTFFLTLLPLFIFQLLYRMCIMQIPSGYYLQTMNSNLNLDGFLLPIAVMNAISSLPLLILAPFLEYFSTCLFPSKRVGSFLSTCIIAGNLFAALSVMIAGFFEIHRKHFPAVEQPLSGKVLTVSSMPCFYLILQYVLLGVAETLVNPALSVISYRFVPSNVRGTSMNFLTLFNGFGCFTGALLVKLVYLISDGNWFPNTLNKGNLESFFFFLASLTLLNVLGFCSVSQRYCNLNHFNAQNIRGSNLEETLLLHEKSLKFYGSIQEFSSSIDLWETAL
B2: FERM and PDZ domain-containing protein 4 (Homo sapiens), Q14CM0 (parent)
chain: MDVFSFVKIAKLSSHRTKSSGWPPPSGTWGLSQVPPYGWEMTANRDGRDYFINHMTQAIPFDDPRLESCQIIPPAPRKVEMRRDPVLGFGFVAGSEKPVVVRSVTPGGPSEGKLIPGDQIVMINDEPVSAAPRERVIDLVRSCKESILLTVIQPYPSPKSAFISAAKKARLKSNPVKVRFSEEVIINGQVSETVKDNSLLFMPNVLKVYLENGQTKSFRFDCSTSIKDVILTLQEKLSIKGIEHFSLMLEQRTEGAGTKLLLLHEQETLTQVTQRPSSHKMRCLFRISFVPKDPIDLLRRDPVAFEYLYVQSCNDVVQERFGPELKYDIALRLAALQMYIATVTTKQTQKISLKYIEKEWGLETFLPSAVLQSMKEKNIKKALSHLVKANQNLVPPGKKLSALQAKVHYLKFLSDLRLYGGRVFKATLVQAEKRSEVTLLVGPRYGISHVINTKTNLVALLADFSHVNRIEMFSEEESLVRVELHVLDVKPITLLMESSDAMNLACLTAGYYRLLVDSRRSIFNMANKKNTATQETGPENKGKHNLLGPDWNCIPQMTTFIGEGEQEAQITYIDSKQKTVEITDSTMCPKEHRHLYIDNAYSSDGLNQQLSQPGEAPCEADYRSLAQRSLLTLSGPETLKKAQESPRGAKVSFIFGDFALDDGISPPTLGYETLLDEGPEMLEKQRNLYIGSANDMKGLDLTPEAEGIQFVENSVYANIGDVKSFQAAEGIEEPLLHDICYAENTDDAEDEDEVSCEEDLVVGEMNQPAILNLSGSSDDIIDLTSLPPPEGDDNEDDFLLRSLNMAIAAPPPGFRDSSDEEDSQSQAASFPEDKEKGSSLQNDEIPVSLIDAVPTSAEGKCEKGLDNAVVSTLGALEALSVSEEQQTSDNSGVAILRAYSPESSSDSGNETNSSEMTESSELATAQKQSENLSRMFLATHEGYHPLAEEQTEFPASKTPAGGLPPKSSHALAARPATDLPPKVVPSKQLLHSDHMEMEPETMETKSVTDYFSKLHMGSVAYSCTSKRKSKLADGEGKAPPNGNTTGKKQQGTKTAEMEEEASGKFGTVSSRDSQHLSTFNLERTAFRKDSQRWYVATEGGMAEKSGLEAATGKTFPRASGLGAREAEGKEEGAPDGETSDGSGLGQGDRFLTDVTCASSAKDLDNPEDADSSTCDHPSKLPEADESVARLCDYHLAKRMSSLQSEGHFSLQSSQGSSVDAGCGTGSSGSACATPVESPLCPSLGKHLIPDASGKGVNYIPSEERAPGLPNHGATFKELHPQTEGMCPRMTVPALHTAINTEPLFGTLRDGCHRLPKIKETTV
B3: Monocarboxylate transporter 2 (Homo sapiens), O60669 (parent)
chain: MPPMPSAPPVHPPPDGGWGWIVVGAAFISIGFSYAFPKAVTVFFKEIQQIFHTTYSEIAWISSIMLAVMYAGGPVSSVLVNKYGSRPVVIAGGLLCCLGMVLASFSSSVVQLYLTMGFITGLGLAFNLQPALTIIGKYFYRKRPMANGLAMAGSPVFLSSLAPFNQYLFNTFGWKGSFLILGSLLLNACVAGSLMRPLGPNQTTSKSKNKTGKTEDDSSPKKIKTKKSTWEKVNKYLDFSLFKHRGFLIYLSGNVIMFLGFFAPIIFLAPYAKDQGIDEYSAAFLLSVMAFVDMFARPSVGLIANSKYIRPRIQYFFSFAIMFNGVCHLLCPLAQDYTSLVLYAVFFGLGFGSVSSVLFETLMDLVGAPRFSSAVGLVTIVECGPVLLGPPLAGKLVDLTGEYKYMYMSCGAIVVAASVWLLIGNAINYRLLAKERKEENARQKTRESEPLSKSKHSEDVNVKVSNAQSVTSERETNI
B4: Peroxiredoxin-5, mitochondrial (Homo sapiens), P30044 (parent)
chain: MGLAGVCALRRSAGYILVGGAGGQSAAAAARRYSEGEWASGGVRSFSRAAAAMAPIKVGDAIPAVEVFEGEPGNKVNLAELFKGKKGVLFGVPGAFTPGCSKTHLPGFVEQAEALKAKGVQVVACLSVNDAFVTGEWGRAHKAEGKVRLLADPTGAFGKETDLLLDDSLVSIFGNRRLKRFSMVVQDGIVKALNVEPDGTGLTCSLAPNIISQL
B5: Olfactory receptor 5F1 (Homo sapiens), O95221 (parent)
chain: MTRKNYTSLTEFVLLGLADTLELQIILFLFFLVIYTLTVLGNLGMILLIRIDSQLHTPMYFFLANLSFVDVCNSTTITPKMLADLLSEKKTISFAGCFLQMYFFISLATTECILFGLMAYDRYAAICRPLLYSLIMSRTVYLKMAAGAFAAGLLNFMVNTSHVSSLSFCDSNVIHHFFCDSPPLFKLSCSDTILKESISSILAGVNIVGTLLVILSSYSYVLFSIFSMHSGEGRHRAFSTCASHLTAIILFYATCIYTYLRPSSSYSLNQDKVASVFYTVVIPMLNPLIYSLRSKEVKKALANVISRKRTSSFL

Variants of: B1
Settings: with scrib_human SCRIB
Target sequence in this assay (Q14160 whole entry): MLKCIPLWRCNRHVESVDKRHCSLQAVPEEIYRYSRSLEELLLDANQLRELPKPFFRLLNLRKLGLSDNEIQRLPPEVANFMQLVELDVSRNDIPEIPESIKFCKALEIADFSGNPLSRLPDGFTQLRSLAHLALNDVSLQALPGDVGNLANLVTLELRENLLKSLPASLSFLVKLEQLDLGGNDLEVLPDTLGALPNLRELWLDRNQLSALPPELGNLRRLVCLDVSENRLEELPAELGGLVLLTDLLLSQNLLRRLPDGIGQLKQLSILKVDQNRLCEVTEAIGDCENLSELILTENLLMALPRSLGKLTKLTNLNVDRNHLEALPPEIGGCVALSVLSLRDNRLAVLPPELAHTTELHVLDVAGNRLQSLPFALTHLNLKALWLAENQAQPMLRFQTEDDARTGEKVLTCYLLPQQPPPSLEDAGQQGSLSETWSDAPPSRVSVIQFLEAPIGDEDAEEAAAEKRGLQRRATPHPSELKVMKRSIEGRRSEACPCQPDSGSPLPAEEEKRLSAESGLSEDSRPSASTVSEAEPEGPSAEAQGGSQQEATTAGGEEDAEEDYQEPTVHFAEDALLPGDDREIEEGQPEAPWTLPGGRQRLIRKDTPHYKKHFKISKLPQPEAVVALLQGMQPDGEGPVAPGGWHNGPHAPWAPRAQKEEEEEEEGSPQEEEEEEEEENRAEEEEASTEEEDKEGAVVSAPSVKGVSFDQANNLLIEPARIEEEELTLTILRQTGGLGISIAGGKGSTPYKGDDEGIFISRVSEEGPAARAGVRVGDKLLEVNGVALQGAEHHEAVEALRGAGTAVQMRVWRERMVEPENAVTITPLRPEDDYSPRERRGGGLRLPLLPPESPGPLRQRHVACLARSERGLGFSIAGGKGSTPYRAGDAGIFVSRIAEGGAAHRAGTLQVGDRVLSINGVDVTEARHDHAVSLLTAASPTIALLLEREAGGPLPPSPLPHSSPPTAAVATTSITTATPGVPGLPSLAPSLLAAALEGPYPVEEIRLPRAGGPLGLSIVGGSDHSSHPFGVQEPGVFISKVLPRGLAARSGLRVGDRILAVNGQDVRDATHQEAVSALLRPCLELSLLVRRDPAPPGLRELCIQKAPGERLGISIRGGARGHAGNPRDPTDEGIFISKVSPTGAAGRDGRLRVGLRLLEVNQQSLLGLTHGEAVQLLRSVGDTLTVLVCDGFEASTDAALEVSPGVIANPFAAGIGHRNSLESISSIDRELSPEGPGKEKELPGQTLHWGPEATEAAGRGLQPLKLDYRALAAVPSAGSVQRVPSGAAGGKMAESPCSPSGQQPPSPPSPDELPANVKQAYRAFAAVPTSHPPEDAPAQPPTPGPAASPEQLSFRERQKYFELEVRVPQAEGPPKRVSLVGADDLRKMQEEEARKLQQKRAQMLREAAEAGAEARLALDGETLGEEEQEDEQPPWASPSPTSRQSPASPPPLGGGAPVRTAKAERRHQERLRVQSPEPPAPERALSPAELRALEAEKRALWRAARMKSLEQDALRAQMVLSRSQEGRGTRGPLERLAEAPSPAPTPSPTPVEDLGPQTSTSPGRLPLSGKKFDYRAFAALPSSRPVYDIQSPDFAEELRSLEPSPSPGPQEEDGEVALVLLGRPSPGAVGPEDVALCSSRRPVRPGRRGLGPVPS

Q: Which “effect of a mutation on the interaction” value does the source give for MSVTGFTITDEKVHLYHSIEKEKTVRHIGDLCSSHSVKKIQVGICLLLVELCERFTFFEVVCNMIPFCTIKLGYHNCQAAILNLCFIGTSILTPVFVRWLTDVYLGRNKLVYICLFLHFLGTALLSVVAFPLEDFYLGTYHAVNNIPKTEQHRLFYVALLTICLGIGGVRAIVCPLGAFGLQEYGSQKTMSFFNWFYWLMNLNATIVFLGISYIQHSQAWALVLLIPFMSMLMAVITLHMIYYNLIYQSEKRCSLLTGVGVLVSALKTCHPQYCHLGRDVTSQLDHAKEKNGGCYSELHVEDTTFFLTLLPLFIFQLLYRMCIMQIPSGYYLQTMNSNLNLDGFLLPIAVMNAISSLPLLILAPFLEYFSTCLFPSKRVGSFLSTCIIAGNLFAALSVMIAGFFEIHRKHFPAVEQPLSGKVLTVSSMPCFYLILQYVLLGVAETLVNPALSVISYRFVPSNVRGTSMNFLTLFNGFGCFTGALLVKLVYLISDGNWFPNTLNKGNLESFFFFLASLTLLNVLGFCSVSQRYCNLNHFNAQNIRGSNLEETLLLHEKSLKFYGSIQEFSSEIDLWETAL [S571E] here?
A: decreasing interaction strength

Variants of: B2
Settings: with scrib_human SCRIB
Target sequence in this assay (Q14160 whole entry): as the sequence (Q14160 whole entry) above

Q: Which “effect of a mutation on the interaction” value does the source give for T1320E here?
A: disrupting interaction strength

Variants of: B2
Settings: with dlg1_human DLG1, Q12959
Chain of dlg1_human DLG1, Q12959 (Q12959 whole entry, looked up): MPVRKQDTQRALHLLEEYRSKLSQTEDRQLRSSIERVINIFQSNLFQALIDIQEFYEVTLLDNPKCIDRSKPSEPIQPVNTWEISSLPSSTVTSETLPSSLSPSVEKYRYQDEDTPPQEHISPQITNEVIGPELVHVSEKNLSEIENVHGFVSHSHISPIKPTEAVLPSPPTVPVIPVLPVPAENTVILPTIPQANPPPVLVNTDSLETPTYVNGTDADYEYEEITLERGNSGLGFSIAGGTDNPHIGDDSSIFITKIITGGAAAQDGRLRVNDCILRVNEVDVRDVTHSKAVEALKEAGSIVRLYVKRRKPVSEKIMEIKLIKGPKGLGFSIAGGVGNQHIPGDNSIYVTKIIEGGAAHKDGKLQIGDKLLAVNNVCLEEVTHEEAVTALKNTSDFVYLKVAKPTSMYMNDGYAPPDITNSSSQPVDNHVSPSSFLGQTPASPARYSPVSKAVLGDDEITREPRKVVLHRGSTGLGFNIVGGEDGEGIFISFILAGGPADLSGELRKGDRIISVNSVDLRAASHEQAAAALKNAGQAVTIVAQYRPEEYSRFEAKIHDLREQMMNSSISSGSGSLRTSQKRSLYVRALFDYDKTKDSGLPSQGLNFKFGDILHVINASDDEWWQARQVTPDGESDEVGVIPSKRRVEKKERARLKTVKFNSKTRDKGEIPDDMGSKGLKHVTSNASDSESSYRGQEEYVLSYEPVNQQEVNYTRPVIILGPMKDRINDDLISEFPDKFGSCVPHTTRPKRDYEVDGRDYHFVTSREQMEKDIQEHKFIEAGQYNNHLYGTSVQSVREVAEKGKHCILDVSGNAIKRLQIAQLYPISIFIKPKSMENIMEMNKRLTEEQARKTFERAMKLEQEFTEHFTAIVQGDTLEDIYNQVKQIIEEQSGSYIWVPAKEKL

Q: Which “effect of a mutation on the interaction” value does the source give for T1320E here?
A: disrupting interaction strength

Variants of: B3
Settings: with scrib_human SCRIB
Target sequence in this assay (Q14160 whole entry): as the sequence (Q14160 whole entry) above

Q: Which “effect of a mutation on the interaction” value does the source give for MPPMPSAPPVHPPPDGGWGWIVVGAAFISIGFSYAFPKAVTVFFKEIQQIFHTTYSEIAWISSIMLAVMYAGGPVSSVLVNKYGSRPVVIAGGLLCCLGMVLASFSSSVVQLYLTMGFITGLGLAFNLQPALTIIGKYFYRKRPMANGLAMAGSPVFLSSLAPFNQYLFNTFGWKGSFLILGSLLLNACVAGSLMRPLGPNQTTSKSKNKTGKTEDDSSPKKIKTKKSTWEKVNKYLDFSLFKHRGFLIYLSGNVIMFLGFFAPIIFLAPYAKDQGIDEYSAAFLLSVMAFVDMFARPSVGLIANSKYIRPRIQYFFSFAIMFNGVCHLLCPLAQDYTSLVLYAVFFGLGFGSVSSVLFETLMDLVGAPRFSSAVGLVTIVECGPVLLGPPLAGKLVDLTGEYKYMYMSCGAIVVAASVWLLIGNAINYRLLAKERKEENARQKTRESEPLSKSKHSEDVNVKVSNAQSVTEERETNI [S472E] here?
A: decreasing interaction strength

Variants of: B4
Settings: with scrib_human SCRIB
Target sequence in this assay (Q14160 whole entry): as the sequence (Q14160 whole entry) above

Q: For MGLAGVCALRRSAGYILVGGAGGQSAAAAARRYSEGEWASGGVRSFSRAAAAMAPIKVGDAIPAVEVFEGEPGNKVNLAELFKGKKGVLFGVPGAFTPGCSKTHLPGFVEQAEALKAKGVQVVACLSVNDAFVTGEWGRAHKAEGKVRLLADPTGAFGKETDLLLDDSLVSIFGNRRLKRFSMVVQDGIVKALNVEPDGTGLTCSLAPNIIEQL [S212E], which “effect of a mutation on the interaction” value is on record?
A: with no effect

Variants of: B5
Settings: with scrib_human SCRIB
Target sequence in this assay (Q14160 whole entry): as the sequence (Q14160 whole entry) above

Q: How did the “effect of a mutation on the interaction” value turn out when MTRKNYTSLTEFVLLGLADTLELQIILFLFFLVIYTLTVLGNLGMILLIRIDSQLHTPMYFFLANLSFVDVCNSTTITPKMLADLLSEKKTISFAGCFLQMYFFISLATTECILFGLMAYDRYAAICRPLLYSLIMSRTVYLKMAAGAFAAGLLNFMVNTSHVSSLSFCDSNVIHHFFCDSPPLFKLSCSDTILKESISSILAGVNIVGTLLVILSSYSYVLFSIFSMHSGEGRHRAFSTCASHLTAIILFYATCIYTYLRPSSSYSLNQDKVASVFYTVVIPMLNPLIYSLRSKEVKKALANVISRKRTESFL [S311E] was run?
A: causing an interaction
